Measured values reported in US20190201496A1 (published 2019).
Read-outs that look alike come from different tables or passages of the source. Values belong to the binder of their own block, whether it stands above or below them.

Tests used:
Assay in all cases: SPR; pH 6
human β2-microglobulin [1] = biological target: T1, human β2-microglobulin (UniProt P61769 21-119)
HLA-A2:01 = biological target: T2, HLA-A2:01 (human, UniProt A*02:01, biotinylated (site not stated))
T2 chain: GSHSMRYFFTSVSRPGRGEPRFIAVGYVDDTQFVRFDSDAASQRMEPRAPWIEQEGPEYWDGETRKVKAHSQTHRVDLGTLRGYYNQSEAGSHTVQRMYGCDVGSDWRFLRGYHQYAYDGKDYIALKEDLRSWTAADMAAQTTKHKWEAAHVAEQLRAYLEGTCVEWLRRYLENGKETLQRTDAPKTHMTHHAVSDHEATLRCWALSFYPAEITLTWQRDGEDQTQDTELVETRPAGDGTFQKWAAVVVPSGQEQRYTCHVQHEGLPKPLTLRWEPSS

mβ2m = biological target: mβ2m
human β2-microglobulin [2] = biological target: T1, human β2-microglobulin; remark: listed apart in the source

Kd (human β2-microglobulin [1]): 96.9 nM
B1: hAFP N-His (protein)
chain: RTLHRNEYGIASILDSYQCTAEISLADLATIFFAQFVQEATYKEVSKMVKDALTAIEKPTGDEQSSGCLENQLPAFLEELCHEKEILEKYGHSDCCSQSEEGRHNCFLAHKKPTPASIPLFQVPEPVTSCEAYEEDRETFMNKFIYEIARRHPFLYAPTILLWAARYDKIIPSCCKAENAVECFQTKAATVTKELRESSLLNQHACAVMKNFGTRTFQAITVTKLSQKFTKVNFTEIQKLVLDVAHVHEHCCRGDVLDCLQDGEKIMSYICSQQDTLSNKITECCKLTTLERGQCIIHAENDEKPEGLSPNLNRFLGDRDFNQFSSGEKNIFLASFVHEYSRRHPQLAVSVILRVAKGYQELLEKCFQTENPLECQDKGEEELQKYIQESQALAKRSCGLFQKLGEYYLQNAFLVAYTKKAPQLTSSELMAITRKMAATAATCCQLSEDKLLACGEGAADIIIGHLCIRHEMTPVNPGVGQCCTSSYANRRPCFSSLVVDETYVPPAFSDDKFIFHKDLCQAQGVALQTMKQEFLINLVKQKPQITEEQLEAVIADFSGLLEKCCQGQEQEVCFAEEGQKLISKTRAALGV

Kd (HLA-A2:01): 35.9 nM
B2: AFP (ligand)
chain: B1 chain

Kd (human β2-microglobulin [1]): 193 nM
B3: human AFP derived from cord blood (ligand)
chain: B1 chain

Kd (mβ2m): 167 nM
B4: hAFP cord (ligand)
chain: B1 chain

Kd (human β2-microglobulin [2]): 125 nM
B5: human alpha-fetoprotein (AFP) (ligand)
chain: B1 chain
